Reference: paper PMC3162602, “Laforin, a Dual Specificity Phosphatase Involved in Lafora Disease, Is Present Mainly as Monomeric Form with Full Phosphatase Activity” (PLoS ONE, 2011)

Legend:
Hs-laforin-HIS6 (human) = Hs-laforin-HIS6 (human) (UniProt O95278); experiment: SEC; Ni-NTA-purified Hs-laforin-HIS6 on HiLoad 16/60 Superdex 75; two peaks, A (dimer) and B (monomer)
[1] = target: Cm-laforin-HIS6 (Cyanidioschyzon merolae); experiment: SEC; SEX4-HIS6 on Superdex-75 and Cm-laforin-HIS6 on Superdex-200 after Ni-NTA; multiple peaks
[2] = target: the molecule itself; experiment: as above

Hs-laforin-HIS6 (from UniProt O95278 1-331) (enzyme)
stoichiometry N (Hs-laforin-HIS6 (human)): 2

Cm-laforin-HIS6 (enzyme)
stoichiometry N [1]: 2

B1: At-SEX4-HIS6(Δ81) (enzyme, Arabidopsis thaliana, UniProt Q9FEB5 82-379, looked up)
chain: QAMGAVLTYRHELGMNYNFIRPDLIVGSCLQTPEDVDKLRKIGVKTIFCLQQDPDLEYFGVDISSIQAYAKKYSDIQHIRCEIRDFDAFDLRMRLPAVVGTLYKAVKRNGGVTYVHCTAGMGRAPAVALTYMFWVQGYKLMEAHKLLMSKRSCFPKLDAIRNATIDILTGLKRKTVTLTLKDKGFSRVEISGLDIGWGQRIPLTLDKGTGFWILKRELPEGQFEYKYIIDGEWTHNEAEPFIGPNKDGHTNNYAKVVDDPTSVDGTTRERLSSEDPELLEEERSKLIQFLETCSEAEV
notes: SEX4 (Starch EXcess4), Arabidopsis thaliana glucan phosphatase; construct pET21a At-SEX4-HIS6(Δ81), printed as a 32 kDa protein; Δ81 read as lacking the first 81 residues; also called Starch EXcess4; source: bacteria (E. coli), purified (Ni-NTA, Superdex-75)
stoichiometry N [2]: 2
